According to patent publication US20260176378A1 (DYAX, published 2026):

B1: M161-C11 (Fab, V domains shown)
VH: EVQLLESGGGLVQPGGSLRLSCAASGFTFSDYAMKWVRQAPGKGLEWVSSISSSGGVTQYADSVKGRFTISRDNSKNTLYLQMNSLRAEDTAVYYCAREEDYSSSWYSRRFDYYYGMDVWGQGTTVTVSS
VL: QSALTQPPSVSVSPGQTASITCSGDKLGDKYVSWYQQRPGQSPVLVIYQDTKRPSGIPERFSGSNSGNTATLTISGTQAVDEADYYCQAWDSSTYVFGGGTKVTVL
B2: M7-E07 (Fab, V domains shown)
VH: EVQLLESGGGLVQPGGSLRLSCAASGFTFSWYLMIWVRQAPGKGLEWVSYIYPSGGFTYYADSVKGRFTISRDNSKNTLYLQMNSLRAEDMAVYYCARTEGPLSWGYGMDVWGQGTTVTVSS
VL: not shown
B3: M162-A04 (antibody, V domains shown)
VH: EVQLLESGGGLVQPGGSLRLSCAASGFTFSHYIMMWVRQAPGKGLEWVSGIYSSGGITVYADSVKGRFTISRDNSKNTLYLQMNSLRAEDTAVYYCAYRRTGIPRRDAFDIWGQGTMVTVSS
VL: DIQMTQSPSTLSASVGDRVTITCRASQSISSWLAWYQQKPGKAPNLLIYKASTLESGVPSRFSGSGSGTEFTLTISSLQPDDFATYYCQQYNTYWTFGQGTKVEIK
notes: phage-derived Fab; also called R84-H05; M162-A4
B4: M6-D09 (Fab, V domains shown)
VH: EVQLLESGGGLVQPGGSLRLSCAASGFTFSFYYMVWVRQAPGKGLEWVSVIYPSGGITVYADSVKGRFTISRDNSKNTLYLQMNSLRAEDTAVYYCARDKWAVMPPYYYYAMDVWGQGTTVTVSS
VL: DIQMTQSPSSLSASVGDRVTITCRASQSIRNYLNWYQQKPGKAPNLLIYAASTLQSGVPARFSGSGSGTDFTLTISSLQPEDFATYYCQQLSGYPHTFGQGTKLEIK
notes: also called M06-D09; 559A-M06-D09
B5: M160-G12 (antibody, V domains shown)
VH: EVQLLESGGGLVQPGGSLRLSCAASGFTFSHYLMTWVRQAPGKGLEWVSYISPSGGHTIYADSVKGRFTISRDNSKNTLYLQMNSLRAEDTAVYYCARVARGIAARSRTSYFDYWGQGTLVTVSS
VL: DIQMTQSPSFLSASVGDRVTITCRASQGISSYLAWYQQKPGKAPKLLIYAASTLQSGVPSRFSGSGSGTEFTLTISSLQPEDFATYYCQQLNSYPLTFGGGTKVEIK
notes: phage-derived Fab; also called R84-D02
B6: M10-F10 (Fab, V domains shown)
VH: EVQLLESGGGLVQPGGSLRLSCAASGFTFSFYNMNWVRQAPGKGLEWVSSISPSGGETNYADSVKGRFTISRDNSKNTLYLQMNSLRAEDTAVYYCARGGGAYRNNWWGGFDIWGLGTMVTVSS
VL: DIQMTQSPSSLSASVGDRVTITCRASQSISVYLNWYQHKPGKAPKLLIYGASNLQFGVPSRFSGSGYGTDFTLTISSLQPEDFATYHCQQTFSLFTFGGGTKVEIK
B7: M8-A09 (Fab, V domains shown)
VH: EVQLLESGGGLVQPGGSLRLSCAASGFTFSTYFMLWVRQAPGKGLEWVSSIYPSGGNTVYADSVKGRFTISRDNSKNTLYLQMNSLRAEDTAVYYCARAASPVRNYYYYGMDVWGQGTTVTVSS
VL: QCELTQPPSESVSPGQTANITCSGDKLGNKYAYWYQQKPGQSPVLVIYQDNNRPSGIPERFSGSNSGNTATLTISGTQAIDEANYYCQAWDSRTVVFGGGTKLTVL
B8: M152-A12 (Fab, V domains shown)
VH: EVQLLESGGGLVQPGGSLRLSCAASGFTFSPYFMGWVRQAPGKGLEWVSGIGPSGGSTTYADSVKGRFTISRDNSKNTLYLQMNSLRAEDTAVYYCAREGPPYSSGWYRGLRQYHFDYWGQGTLVTVSS
VL: DIQMTQSPSSLSASVGDRVTITCRASQSISSYLSWYQQRPGKAPNLLIYAASSLQSGVPSRFSGSGSGTDFTLTISSLQPEDFATYYCQQSISIPRTFGQGTKVEVK

How the values were obtained:
[1] = target: T1, human plasma kallikrein (human, UniProt P03952 20-390; P03952 391-638); test: ELISA, biotinylated pKal signal over streptavidin background
T1 construct: two disulfide-linked chains; NP_000883.2; also called pKal; hpKal
T1 sequence (P03952 20-390 limits assumed, chain 1 of 2): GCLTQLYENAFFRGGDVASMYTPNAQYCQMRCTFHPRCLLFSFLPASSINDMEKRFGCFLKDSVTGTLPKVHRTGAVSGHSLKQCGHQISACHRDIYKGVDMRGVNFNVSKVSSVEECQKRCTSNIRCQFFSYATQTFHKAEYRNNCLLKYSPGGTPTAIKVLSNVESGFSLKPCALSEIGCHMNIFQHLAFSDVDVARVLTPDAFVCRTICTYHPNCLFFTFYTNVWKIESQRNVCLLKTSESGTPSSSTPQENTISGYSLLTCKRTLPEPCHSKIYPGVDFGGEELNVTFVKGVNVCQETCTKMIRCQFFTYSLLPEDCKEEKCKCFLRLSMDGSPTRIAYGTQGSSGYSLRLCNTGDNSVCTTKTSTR
T1 sequence (P03952 391-638 limits assumed, chain 2 of 2): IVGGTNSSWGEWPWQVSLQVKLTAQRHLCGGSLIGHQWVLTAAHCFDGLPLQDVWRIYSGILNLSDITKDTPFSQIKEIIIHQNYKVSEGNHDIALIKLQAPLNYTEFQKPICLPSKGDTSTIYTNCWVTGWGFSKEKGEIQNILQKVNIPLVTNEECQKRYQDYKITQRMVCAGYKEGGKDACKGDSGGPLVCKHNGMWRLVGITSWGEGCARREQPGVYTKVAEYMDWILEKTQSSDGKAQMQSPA

[2] = target: T2, pKal catalytic domain Mutant 2 (human, UniProt P03952 391-638); test: equilibrium Ki,app
T2 construct: Pichia pastoris; construct limits derived as for the wild type domain; not shown: His tag fusion
T2 sequence (P03952 other isoform, or with tags, fused parts or gaps mutant): as the sequence (P03952 391-638 limits assumed, chain 2 of 2) above, with R161A, Q163A, Y165A, T168A, R170A counted along it
Procedure: Enzyme and inhibitor were pre-incubated for 2 hours at 30° C. in a 96-well plate by adding 10 μL of a 10× enzyme solution and 10 μL of 10× inhibitor solutions to 70 μL of reaction buffer. Reactions were initiated by the addition of 10 μL of a 10× concentrated stock of substrate, and were monitored at 30° C. in a fluorescence plate reader with the excitation and emission wavelengths set at 360 nm/460 nm, respectively. Kinetic data were acquired by the increase in fluorescence, and initial rates for each condition were plotted against the total inhibitor concentration. The data was fit to the following equation for tight binding inhibitors: […]

| Binder | ELISA (T/B) [1] | fold change of Ki,app against the wild type catalytic domain [2] [fold] |
| --- | --- | --- |
| B1 | 41.8 |  |
| B2 | 45.7 |  |
| B3 | 11.4 |  |
| B4 | 39.9 | ~5 |
| B5 | 38.3 |  |
| B6 | 39.2 |  |
| B7 | 5.4 |  |
| B8 | 19 |  |
